Measured values as given in patent US20090280138A1 (OXFORD BIOMEDICA UK, published 2009).

Key:
Assay in all cases: iTopia peptide binding assay
[1] = target: T1, MHC class I allele A*0101 (bound via biotin to streptavidin-coated plate)
T1 construct: iTopia MHC class I monomer on the plate; placeholder peptide and b2M removed, then reconstituted with test peptide and fresh b2M; also called A1; HLA A1
Protocol: (§1) The 9 mers were tested for Peptide Binding, Off Rate and Affinity using iTopia Epitope Discovery System in accordance with the manufacturer's instructions. Briefly, 96 well microtitre plates coated with MHC molecules representing different MHC alleles are used to identify candidate peptides. […] Determinations are performed in duplicate using an ELISA plate reader and included allele specific positive controls.
(§2) i) Peptide Binding—This assay measures the ability of individual peptides to bind to the MHC molecules under standardized optimal binding conditions. The assay is performed for all the test peptides across the selected MHC alleles. The test peptides identified as “binders” are characterized further in terms of affinity and dissociation experiments.

[2] = target: T2, MHC class I allele A*0201 (bound via biotin to streptavidin-coated plate)
T2 construct: iTopia MHC class I monomer on the plate; placeholder peptide and b2M removed, then reconstituted with test peptide and fresh b2M; also called A2; HLA A2
Protocol: as §1, §2

[3] = target: T3, MHC class I allele A*0301 (bound via biotin to streptavidin-coated plate)
T3 construct: iTopia MHC class I monomer on the plate; placeholder peptide and b2M removed, then reconstituted with test peptide and fresh b2M; also called A3; HLA A3
Protocol: as §1, §2

[4] = target: T4, MHC class I allele B*0702 (bound via biotin to streptavidin-coated plate)
T4 construct: iTopia MHC class I monomer on the plate; placeholder peptide and b2M removed, then reconstituted with test peptide and fresh b2M; also called B7; HLA B7
Protocol: as §1, §2

Binder: TEVPTDLPA (also called Peptide No 42) [5T4 9 mer peptide 42 TEVPTDLPA]
- % of positive control peptide binding [1]: 3%
- % of positive control peptide binding [2]: 7%
- % of positive control peptide binding [3]: 0%
- % of positive control peptide binding [4]: 0%

Binder: RLDEVRAGA (also called Peptide No 65) [5T4 9 mer peptide 65 RLDEVRAGA]
- % of positive control peptide binding [1]: 4%
- % of positive control peptide binding [2]: 69%
- % of positive control peptide binding [3]: 17%
- % of positive control peptide binding [4]: 32%

Binder: SLRQLDLSH (also called Peptide No 72) [5T4 9 mer peptide 72 SLRQLDLSH]
- % of positive control peptide binding [1]: 0%
- % of positive control peptide binding [2]: 6%
- % of positive control peptide binding [3]: 11%
- % of positive control peptide binding [4]: 13%

Binder: AGAFEHLPS (also called Peptide No 68) [5T4 9 mer peptide 68 AGAFEHLPS]
- % of positive control peptide binding [1]: 6%
- % of positive control peptide binding [2]: 10%
- % of positive control peptide binding [3]: 3%
- % of positive control peptide binding [4]: 7%

Binder: VRNLFLTGN (also called Peptide No 47) [5T4 9 mer peptide 47 VRNLFLTGN]
- % of positive control peptide binding [1]: 0%
- % of positive control peptide binding [2]: 5%
- % of positive control peptide binding [3]: 0%
- % of positive control peptide binding [4]: 3%

Binder: FLTGNQLAV (also called Peptide No 49) [5T4 9 mer peptide 49 FLTGNQLAV]
- % of positive control peptide binding [1]: 4%
- % of positive control peptide binding [2]: 90%
- % of positive control peptide binding [3]: 3%
- % of positive control peptide binding [4]: 6%

Binder: AALNLSGSR (also called Peptide No 61) [5T4 9 mer peptide 61 AALNLSGSR]
- % of positive control peptide binding [1]: 3%
- % of positive control peptide binding [2]: 6%
- % of positive control peptide binding [3]: 13%
- % of positive control peptide binding [4]: 3%

Binder: AFEHLPSLR (also called Peptide No 69) [5T4 9 mer peptide 69 AFEHLPSLR]
- % of positive control peptide binding [1]: 1%
- % of positive control peptide binding [2]: 11%
- % of positive control peptide binding [3]: 11%
- % of positive control peptide binding [4]: 0%

Binder: TDLPAYVRN (also called Peptide No 44) [5T4 9 mer peptide 44 TDLPAYVRN]
- % of positive control peptide binding [1]: 7%
- % of positive control peptide binding [2]: 3%
- % of positive control peptide binding [3]: 1%
- % of positive control peptide binding [4]: 2%

Binder: VPTDLPAYV (also called Peptide No 43) [5T4 9 mer peptide 43 VPTDLPAYV]
- % of positive control peptide binding [1]: 33%
- % of positive control peptide binding [2]: 29%
- % of positive control peptide binding [3]: 0%
- % of positive control peptide binding [4]: 11%

Binder: PAGAFARRP (also called Peptide No 54) [5T4 9 mer peptide 54 PAGAFARRP]
- % of positive control peptide binding [1]: 2%
- % of positive control peptide binding [2]: 4%
- % of positive control peptide binding [3]: 3%
- % of positive control peptide binding [4]: 7%

Binder: RRPPLAELA (also called Peptide No 57) [5T4 9 mer peptide 57 RRPPLAELA]
- % of positive control peptide binding [1]: 2%
- % of positive control peptide binding [2]: 11%
- % of positive control peptide binding [3]: 2%
- % of positive control peptide binding [4]: 9%

Binder: PAAGDGRLR (also called Peptide No 5) [5T4 9 mer peptide 5 PAAGDGRLR]
- % of positive control peptide binding [1]: 4%
- % of positive control peptide binding [2]: 5%
- % of positive control peptide binding [3]: 4%
- % of positive control peptide binding [4]: 5%

Binder: RQLDLSHNP (also called Peptide No 73) [5T4 9 mer peptide 73 RQLDLSHNP]
- % of positive control peptide binding [1]: 2%
- % of positive control peptide binding [2]: 8%
- % of positive control peptide binding [3]: 2%
- % of positive control peptide binding [4]: 4%

Binder: HNPLADLSP (also called Peptide No 76) [5T4 9 mer peptide 76 HNPLADLSP]
- % of positive control peptide binding [1]: 5%
- % of positive control peptide binding [2]: 7%
- % of positive control peptide binding [3]: 3%
- % of positive control peptide binding [4]: 5%

Binder: LNLSGSRLD (also called Peptide No 62) [5T4 9 mer peptide 62 LNLSGSRLD]
- % of positive control peptide binding [1]: 2%
- % of positive control peptide binding [2]: 7%
- % of positive control peptide binding [3]: 2%
- % of positive control peptide binding [4]: 7%

Binder: DEVRAGAFE (also called Peptide No 66) [5T4 9 mer peptide 66 DEVRAGAFE]
- % of positive control peptide binding [1]: 6%
- % of positive control peptide binding [2]: 9%
- % of positive control peptide binding [3]: 7%
- % of positive control peptide binding [4]: 12%

Binder: LAELAALNL (also called Peptide No 59) [5T4 9 mer peptide 59 LAELAALNL]
- % of positive control peptide binding [1]: 15%
- % of positive control peptide binding [2]: 63%
- % of positive control peptide binding [3]: 3%
- % of positive control peptide binding [4]: 16%

Binder: CSRGPAAGD (also called Peptide No 3) [5T4 9 mer peptide 3 CSRGPAAGD]
- % of positive control peptide binding [1]: 0%
- % of positive control peptide binding [2]: 3%
- % of positive control peptide binding [3]: 5%
- % of positive control peptide binding [4]: 3%

Binder: GAFARRPPL (also called Peptide No 55) [5T4 9 mer peptide 55 GAFARRPPL]
- % of positive control peptide binding [1]: 0%
- % of positive control peptide binding [2]: 41%
- % of positive control peptide binding [3]: 3%
- % of positive control peptide binding [4]: 91%

Binder: PFAFSGSNA (also called Peptide No 80) [5T4 9 mer peptide 80 PFAFSGSNA]
- % of positive control peptide binding [1]: 0%
- % of positive control peptide binding [2]: 13%
- % of positive control peptide binding [3]: 3%
- % of positive control peptide binding [4]: 7%

Binder: LPSLRQLDL (also called Peptide No 71) [5T4 9 mer peptide 71 LPSLRQLDL]
- % of positive control peptide binding [1]: 0%
- % of positive control peptide binding [2]: 27%
- % of positive control peptide binding [3]: 0%
- % of positive control peptide binding [4]: 82%

Binder: LPSLRHLDL (also called Peptide No 117) [5T4 9 mer peptide 117 LPSLRHLDL]
- % of positive control peptide binding [1]: 0%
- % of positive control peptide binding [2]: 16%
- % of positive control peptide binding [3]: 1%
- % of positive control peptide binding [4]: 96%

Binder: PLADLSPFA (also called Peptide No 77) [5T4 9 mer peptide 77 PLADLSPFA]
- % of positive control peptide binding [1]: 1%
- % of positive control peptide binding [2]: 67%
- % of positive control peptide binding [3]: 0%
- % of positive control peptide binding [4]: 10%

Binder: LPAYVRNLF (also called Peptide No 45) [5T4 9 mer peptide 45 LPAYVRNLF]
- % of positive control peptide binding [1]: 7%
- % of positive control peptide binding [2]: 14%
- % of positive control peptide binding [3]: 2%
- % of positive control peptide binding [4]: 90%

Binder: PPLAELAAL (also called Peptide No 58) [5T4 9 mer peptide 58 PPLAELAAL]
- % of positive control peptide binding [1]: 6%
- % of positive control peptide binding [2]: 19%
- % of positive control peptide binding [3]: 4%
- % of positive control peptide binding [4]: 33%

Binder: SGSNASVSA (also called Peptide No 82) [5T4 9 mer peptide 82 SGSNASVSA]
- % of positive control peptide binding [1]: 5%
- % of positive control peptide binding [2]: 15%
- % of positive control peptide binding [3]: 3%
- % of positive control peptide binding [4]: 11%

Binder: AFSGSNASV (also called Peptide No 81) [5T4 9 mer peptide 81 AFSGSNASV]
- % of positive control peptide binding [1]: 2%
- % of positive control peptide binding [2]: 55%
- % of positive control peptide binding [3]: 2%
- % of positive control peptide binding [4]: 14%
